Eleven molecules from patent US20240247072A1 (KEYMED BIOSCIENCES, published 2024) can be followed below.

The target in experiment [1] is T1, human CD70, full length, on CHO cells (CHO-human CD70-B07) (human, UniProt P32970 1-193).
T1 construct: whole, on cells; Stably transfected CHO cells; also called CHO-CD70
T1 sequence (looked up): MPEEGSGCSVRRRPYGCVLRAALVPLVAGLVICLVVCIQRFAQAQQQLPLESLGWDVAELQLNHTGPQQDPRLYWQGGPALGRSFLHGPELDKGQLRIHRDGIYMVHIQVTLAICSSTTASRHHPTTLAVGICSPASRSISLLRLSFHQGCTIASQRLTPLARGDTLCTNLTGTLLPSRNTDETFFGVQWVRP
Kind of experiment: flow cytometry, chimeric IgG on CHO-human CD70 cells. As for the experimental part: Different cells in logarithmic growth phase were taken, blocked with 3% BSA for 30 minutes, and plated to a 96-well U-plate at 5×10⁴ cells/100 μL. The centrifuge was performed at 1100 rpm for 3 minutes. The supernatant was discarded and the cells were gently tapped to be loosening. 50 μL of gradient diluted antibody was added (antibody concentration: from 30 μg/mL, 3-fold dilution for 5 gradients) per well, and incubated at 4° C. for 1 hour. After incubation, 180 μL of 0.5% BSA was added to each well for washing 3 times. 30 μL/well of secondary antibody AlexaFluro647 anti-human IgG (Jackson Immuno Research, Cat. No: 109-606-170) was added and incubated at 4° C. for 45 minutes. At the end of the incubation, each well was washed 3 times with 180 μL of 0.5% BSA and finally resuspended in 50 μL of PBS for iQue (Intellicyt, USA) assay.

The target in experiment [2] is T2, recombinant trimeric protein of human CD70 extracellular region (human CD70 mIgG Fc (knob) / mouse IgG Fc … (human, UniProt P01863 98-330 = IgG part)).
T2 construct: The ELISA and Octet texts say only 'recombinant CD70 protein' / 'CM352 antigen'; also called recombinant human CD70 protein; recombinant CD70 protein
T2 chain 1: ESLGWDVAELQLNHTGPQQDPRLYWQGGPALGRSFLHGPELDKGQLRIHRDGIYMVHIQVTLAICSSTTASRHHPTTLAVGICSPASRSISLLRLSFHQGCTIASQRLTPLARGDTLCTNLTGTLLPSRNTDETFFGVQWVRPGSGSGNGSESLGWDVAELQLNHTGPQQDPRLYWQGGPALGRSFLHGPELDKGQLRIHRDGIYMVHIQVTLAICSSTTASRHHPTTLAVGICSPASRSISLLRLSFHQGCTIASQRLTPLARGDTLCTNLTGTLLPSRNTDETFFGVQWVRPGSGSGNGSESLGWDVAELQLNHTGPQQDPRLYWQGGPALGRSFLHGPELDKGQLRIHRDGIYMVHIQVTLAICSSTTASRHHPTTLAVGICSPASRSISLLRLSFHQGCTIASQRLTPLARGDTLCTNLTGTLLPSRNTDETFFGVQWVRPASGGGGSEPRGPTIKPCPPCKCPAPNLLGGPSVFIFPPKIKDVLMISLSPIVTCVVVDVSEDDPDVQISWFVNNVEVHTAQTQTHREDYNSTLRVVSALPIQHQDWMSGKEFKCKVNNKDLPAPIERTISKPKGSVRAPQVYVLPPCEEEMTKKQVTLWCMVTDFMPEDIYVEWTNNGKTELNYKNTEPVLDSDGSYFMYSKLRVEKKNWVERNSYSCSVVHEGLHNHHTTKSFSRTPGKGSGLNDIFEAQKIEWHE
T2 chain 2: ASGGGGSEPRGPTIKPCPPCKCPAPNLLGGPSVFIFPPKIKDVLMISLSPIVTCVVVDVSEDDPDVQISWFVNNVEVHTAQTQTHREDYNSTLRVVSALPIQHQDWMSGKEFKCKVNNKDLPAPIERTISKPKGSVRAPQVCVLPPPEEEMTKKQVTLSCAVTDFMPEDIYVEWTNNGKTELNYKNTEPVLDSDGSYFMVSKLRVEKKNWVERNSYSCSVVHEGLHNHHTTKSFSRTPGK
Kind of experiment: competition ELISA, chimeric IgG titrated, CD27 coated, biotin-CD70, human pair. As for the experimental part:
The recombinant CD27 protein was coated at 1 μg/mL in a 96-well microtiter plate and incubated overnight at 4° C. The next day, the plate was washed 3 times with PBS, added with 200 μL of 2% defatted dry milk/PBS, blocked at room temperature for 2 hours, and washed once with PBS. The purified chimeric antibody was divided to 12 concentration gradients starting at 100 nM and diluted in a 1:3 gradient. […] of the antibody was added per well and incubated at room temperature for 30 minutes. […] The plate was washed 3 times with PBST and PBS and dried by spinning. A secondary antibody Streptavidin-coupled horseradish peroxidase SA-HRP (BD bioscience, cat. No: 6222697) was diluted with 0.5% BSA in a ratio of 1:8000. 100 μL of the diluent was added into each well and incubated at room temperature for 30 minutes. The plate was washed 3 times with PBST and PBS and dried by spinning. 100 μl of color development solution (TMB solution, Sigma, Cat. No: T2885) was added into each well and protected from light at 37° C. for reaction. After the substrate developed moderately, 50 μl of H₂SO₄ was added into each well to terminate the reaction. The OD450 nm was determined by using an enzyme-linked detector within 30 minutes, and the data was collected. The results were calculated by using Graph Pad Prism 5 software.

Experiment [3] concerns the target T1, human CD70, full length, on CHO cells …. Nature of the experiment: flow cytometry, hybridoma supernatant, cell surface human CD70.
Experiment [4] deals with T2, recombinant trimeric protein of human …. Nature of the experiment: ELISA binding, hybridoma supernatant, human CD70.

B1: 27A3 chimeric antibody (antibody, V domains shown)
VH: EVQLQESGPGLVQPSQSLSITCTVSGFSLTTYAVHWVRQSPGKGLEWLGVIWSTGITDYNADFISRLSISKDNSKSQVFFKMDSLQSDDTAIYFCARNHYYGNLNAMDYWGQGTSVTVSS
VL: DIVLTQSPASLAVSLGQRATISCRASKSVSTSGYSFMHWYQQKPGQPPKLLIYLASNLESGVPARFSGSGSGTDFTLNIHPVEEEDAATYYCQHSRELPYTFGGGTKLEIK
In experiment [1], B1 returned an EC50 of 4.07 nM. The IC50 in experiment [2] turned out to be 0.08 nM.

B2: 17A9-G5 hybridoma antibody (antibody, V domains shown)
VH: QVQLKQSGPGLVQPSQSLSITCTVSGFSLTTYGVHWVRQSPGKGLEWLGVIWSAGITDYNAPFISRLSITKDNSKSQVFFKMNSLQADDTAIYYCARNDYYGNLYAMDYWGQGTSVTVSS
VL: DIVLTQSPASLAVSLGQRATISCRANKSVSASGYTFMHWYQQKPGQPPKLLIYLVSNLASGVPARFSGSGSGTDFTLNIHPVEGEDAATYYCQHSREFPLTFGAGTKLELK
notes: Mouse antibody in hybridoma culture supernatant
In the case of B2, the binding result in experiment [3] and in experiment [4] was “binds” throughout.

B3: 14C12 chimeric antibody (antibody, V domains shown)
VH: EVQLQQSGPELVKPGASVKMSCKASGYTFTDYVIHWVKQKPGQGLEWIGYLHPYNDDTKYNEKFKGKATLTSDKSSSTAYMELSSLTSEDSAVYYCARRGYYDYAWFADWGQGTLVTVSA
VL: DIVLTQSPASLAVSLGQRATISCRASKSVSASGYTWIHWYQQKPRQAPKLLIYLASNLESGVPARFSGSGSGTDFTLNIHPVEEEDAATYYCQHSRELPPTFGGGTKLEIK
B3: a half-maximal response in experiment [1] (EC50) required 15 nM. In addition, the IC50 in experiment [2] turned out to be 0.1 nM.

B4: 2B12 chimeric antibody (antibody, V domains shown)
VH: QVQLQQSGPGLVQPSQSLSITCTVSGFSLTTYAVHWVRQSPGKGLEWLGVIWSTGITDYNAAFISRLSISKDNSKSQVFFKMNSLQSDDIAIYYCARNPYYGNLNAMDYWGQGTSVTVSS
VL: DIVLTQSPASLAVSLGQRATISCRASKSVDTSGYSFMHWYQQKPGQPPKLLIYLASNLESGVPARFSGSGSGTDFTLNIHPVEEEDAATYYCQHSRELPLTFGAGTKLELK
Molecule B4 returned an EC50 in experiment [1] of 17.7 nM. Besides, in experiment [2], the IC50 stood at 0.11 nM.

B5: 1H21-D5 hybridoma antibody (antibody, V domains shown)
VH: QVQLKQSGPGLVQPSQSLSITCTVSGFSLTSYGIHWVRQSPGKGLEWLGVIWSGGSTDFNAAFISRLSISKDNSKSQVFFKVISLQANDTAIYYCGRNSYYGNLYAMDYWGQGTSVTVSS
VL: DIVLTQSPTSLAVSLGQRATISCRASKSVSASGYSFMHWYQQKPGQPPKLLIYLASNLESGVPARFSGSGSGTDFTLNIHPVEEEDAATYYCQHSRELPLTFGAGTKLELK
notes: as for B2
Take B5: the binding result in experiment [3] and in experiment [4] was “binds” throughout.

B6: 36E7-D6 hybridoma antibody (antibody, V domains shown)
VH: QVQLKQSGPGLVQPSQSLSITCTVSDFSLTIFGVHWVRQSPGKGLEWLGVIWRDGSTDYNAALMSRLNITKDNSKSQVFFKMNSLQTDDTAIYYCAKNRRYDYAWFPYWGQGTLVSVSA
VL: DIVLTQSPASLAVSLGQRATISCRASKSVSASGYSFLHWYQQKPGQPPKLLIYLTSNLESGVPARFSGSGSGTDFTLNIHPVEEEDAATYYCQHSRDFPPTFGAGTKLELK
notes: as for B2
B6: the binding result in experiment [3] and in experiment [4] was “binds” each time.

B7: 16J15-H3 hybridoma antibody (antibody, V domains shown)
VH: QVQLKQSGPGLVQPSQSLSITCTVSNFSLSTYGVHWVRQSPGKGLEWLGVIWGGGYTDYNAAFISRLTISKDNSKSQVFFKMNSLQADDTAIYYCARNNYYGNLYAMDYWGQGTSVTVSS
VL: DIVLTQSPASLPVSLGQRATISCRANKSVSASGYSFMHWYQQKPGQPPKLLIYLASNLDSGVPARFSGSGSGTDFTLNIHPVEEEDTATYYCQHSREFPLTFGAGTKLELK
notes: as for B2
For the molecule B7, the binding result in experiment [3] and in experiment [4] was “binds” in each case.

B8: 10C19-D11 hybridoma antibody (antibody, V domains shown)
VH: QVQLQQSGPGLVQPSQSLSITCTVSGFSLTTYAVHWFRQSPGQGLEWLGVIWSTGITDFNAAFISRLNINKDSSKSQIFFKMISLQPNDTAIYYCGRNSYYGNLYAMDYWGQGTSVTVSS
VL: DIVLTQSPTSLAVSLGQRATISCRASKSVSASGYNFMHWYQQKPGQPPKLLIYLASNLESGVPARFSGSGSETDFTLNIHPVEEGDAATYYCQHSRELPLTFGAGTKLELK
notes: as for B2
As to B8, the binding result in experiment [3] and in experiment [4] was “binds” in each case.

B9: 32D1 chimeric antibody (antibody, V domains shown)
VH: EVQLQQSGPELVKPGASLKMSCKASGYTFTDYVIHWVKQKPGQGLEWIGYLHPYNDDTKYNEKFKGKATLTSDKSSSTAYMELNSLTSEDSAVYYCARRGYYDYAWFADWGQGTLVTVSA
VL: DIVLTQSPASLAVSLGQRATISCKASKSVSASGYTWMHWYQQKPGQAPKLLIYLASNLESGVPARFSGSGSGTDFTLNIHPVEEEDAATYYCQHSRELPPTFGGGTKLEIK
B9 gave an EC50 in experiment [1] of 12.1 nM. The IC50 in experiment [2] worked out at 0.1 nM.

B10: 42H19-G4 hybridoma antibody (antibody, V domains shown)
VH: QVQLKQSGPGPVQPSQSLSITCTVSDFSLTIFGIHWVRQSPGKGLEWLGVIWRDGSTDYNVALMSRLNITKDNSKSQVFFKMNSLQTDDTAIYYCAKNRRYDYAWFPYWGQGTLVSVSA
VL: DIVLTQSPASLAVSLGQRATISCRASKSVSASGYSFLHWYQQKPGQPPKLLIYLTSNLESGVPARFSGSGSGTDFTLNIHPVEEEDAATYYCQHSRDFPPTFGAGTKLELK
notes: as for B2
For B10, the binding result in experiment [3] and in experiment [4] was “binds” throughout.

B11: 4H6-A6 hybridoma antibody (antibody, V domains shown)
VH: QVQLKQSGPGLVQPSQKLSITCTVSGFSLTTYGVHWIRQSPVKGLEWLGVIWTTGVVDYNAAFISRLNITKDNSKSQIFFKMNSLQTNDTAMYYCARNSYYGNLYVMDYWGQGTSVTVSS
VL: DIVLTQSPASLPIFLGQRATISCRASRSVSASGYTFMHWYQQKPGQPPKLLIYLVSNLESGVPARFSGSGSGTDFTLNIHPVEEEDAATYYCQHSREFPLTFGAGTKLELK
notes: as for B2
Regarding B11, the binding result in experiment [3] and in experiment [4] was “binds” in each case.
